These results are taken from patent publication CN115819579A (UNIV ZHEJIANG, dated 2023).

What is called Kd is a measure of binding affinity in units of concentration. A high value points to weaker binding.

The target in experiment [1] is T1, 牛血清白蛋白(BSA) (bovine, UniProt P02769 25-607).
T1 construct: Control antigen of the specificity ELISA
Kind of experiment: ELISA, BSA coated at 1 μg/ml, anti-His detection, OD450.

Experiment [2] concerns the target T2, IL-17A重组蛋白 (UniProt Q16552 24-155, limits assumed).
T2 construct: also called 重组蛋白IL-17A; IL-17A抗原
T2 sequence (looked up): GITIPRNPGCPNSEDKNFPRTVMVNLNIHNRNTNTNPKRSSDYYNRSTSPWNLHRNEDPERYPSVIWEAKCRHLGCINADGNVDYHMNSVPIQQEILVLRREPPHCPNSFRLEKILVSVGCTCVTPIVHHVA
Kind of experiment: BLI (Fortebio).

T1 sequence (P02769 25-607 limits assumed): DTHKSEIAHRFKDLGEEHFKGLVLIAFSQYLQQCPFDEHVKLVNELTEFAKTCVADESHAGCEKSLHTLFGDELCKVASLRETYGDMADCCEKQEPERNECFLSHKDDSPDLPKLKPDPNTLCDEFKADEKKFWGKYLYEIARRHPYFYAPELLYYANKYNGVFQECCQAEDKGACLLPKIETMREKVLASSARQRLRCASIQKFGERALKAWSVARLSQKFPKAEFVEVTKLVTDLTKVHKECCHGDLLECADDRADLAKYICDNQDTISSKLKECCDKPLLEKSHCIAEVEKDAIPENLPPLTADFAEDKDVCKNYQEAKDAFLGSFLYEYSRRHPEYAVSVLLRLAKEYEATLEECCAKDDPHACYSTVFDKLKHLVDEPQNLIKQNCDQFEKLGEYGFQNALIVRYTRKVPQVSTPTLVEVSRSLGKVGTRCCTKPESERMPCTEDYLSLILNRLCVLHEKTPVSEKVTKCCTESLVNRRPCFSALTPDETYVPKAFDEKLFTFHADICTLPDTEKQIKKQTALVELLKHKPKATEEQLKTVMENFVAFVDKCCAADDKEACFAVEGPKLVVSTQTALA

B1: 全人源抗IL-17A单链抗体No.34 (scFv)
scFv: MQVQLVQSGAEVKPPGASVKVSCKASGYTFTTHKIQWVRQAPGQRLEWMGWINTDKGDTKYSQKFQGRVTITSDTSASTAFMDLSSLRSEDTAVYYCARDGEGYAPFGMDVWGQGTTVTVSSGGGGSGGGGSGGGGSDIRLTQSPPSLSASVGDRVTITCRASQTIGSHLNWYQQKPGKAPKLLIYAASSLQSGVPSRFSGSGSGTDFTLTISSLQPEDFATYYCQQSHSGLTFGGGTKVDIK
notes: also called anti-IL-17A scFv No.34; Anti-IL-17A scFv No.34
Regarding B1, the binding result in experiment [1] is “no binding (tested: 0.1μg/ml)”. In experiment [2], this molecule gave a dissociation constant Kd of 110 nM.
